This assay addresses KEAP1 (Kelch-like ECH-associated protein 1), recombinant (UniProt Q14145 1-624). Description: SPR. On the technique in general: In SPR one partner is held on a chip, and binding of the other changes the refractive index at the surface.

In general, Kd refers to the concentration at which binding is half-saturated. By koff is commonly meant the rate constant with which the complex falls apart. What is called kon is a measure of how fast the partners come together.

Sequence of KEAP1 (Kelch-like ECH-associated protein 1), recombinant (Q14145 whole entry): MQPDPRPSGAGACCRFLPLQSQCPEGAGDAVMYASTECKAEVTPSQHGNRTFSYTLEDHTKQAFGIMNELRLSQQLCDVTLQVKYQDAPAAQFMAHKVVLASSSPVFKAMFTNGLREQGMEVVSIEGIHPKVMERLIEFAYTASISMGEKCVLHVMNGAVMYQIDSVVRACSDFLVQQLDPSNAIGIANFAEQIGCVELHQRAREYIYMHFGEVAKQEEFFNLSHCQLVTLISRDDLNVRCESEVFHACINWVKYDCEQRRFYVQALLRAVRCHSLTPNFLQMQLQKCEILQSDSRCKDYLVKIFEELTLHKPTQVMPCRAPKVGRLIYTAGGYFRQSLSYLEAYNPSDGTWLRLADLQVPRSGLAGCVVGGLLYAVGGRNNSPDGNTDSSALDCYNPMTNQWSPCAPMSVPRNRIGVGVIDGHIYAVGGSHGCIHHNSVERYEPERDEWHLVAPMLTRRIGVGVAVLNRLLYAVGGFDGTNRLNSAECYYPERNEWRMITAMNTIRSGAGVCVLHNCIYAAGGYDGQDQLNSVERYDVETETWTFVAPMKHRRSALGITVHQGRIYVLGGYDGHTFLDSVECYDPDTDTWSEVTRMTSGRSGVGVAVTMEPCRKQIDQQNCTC

B1: BDNF mature recombinant (brain-derived neurotrophic factor) (ligand, human, UniProt P23560 129-247, looked up)
chain: HSDPARRGELSVCDSISEWVTAADKKTAVDMSGGTVTVLEKVPVSKGQLKQYFYETKCNPMGYTKEGCRGIDKRHWNSQCRTTQSYVRALTMDSKKRIGWRFIRIDTSCVCTLTIKRGR
For B1, the Kd stood at 2.71 nM, the koff stood at 0.00225 s⁻¹ and the kon was 828000 M⁻¹ s⁻¹.

The record behind these values is doi:10.1101/2022.08.23.504973 (bioRxiv, 2022).
